Test results taken from the DeepSol protein solubility set.

Assay: soluble on expression in E. coli; label from the status in PepcDB or PDB records

MAPRTYASVLTTPRGPAPLALYCPEAPECPKLEAISNLSFQQITQQAGTSNDQGFEFENTYVEHRINQEIESFVDTHHQEPLRKAAAQFRAVMKQEYPDSTCFITGSYPAGVDIFSSDIDFTVKVPTLEGANPFLKLMQLRKELSCYYTIFSKAYVQKGNIPVLQLMHAETKVSIDVTIDNDTSKRNTQLLAFYSQLDTRFPLLCKAMKAWAASCGVEGASRGRLNSFSLCLMLIHYLQTVQVLLNIQEIFPELNGDIVVEDDNYMKRDLKIEILEKGAFDFNQNTSSLAVLFIGFMKYYSEFNFKWNWISIKHGNVLKKKWSKTRVPKNGMPKDCRFIVVADPLLEIPRNCAGTVRQQNYMERIQLEFREEYERILKRKTIFNLYQCNWSRKLRKEGMERDLQIMILQDELRKLRIANLPTEEEVPWGTVVDFTSPRTFSPTNQHPKVFWCSEQTTENQRRDNLWPELLRTNPYAIFENLI
soluble on expression in E. coli: soluble

MGSDKIHHHHHHMDFKQVQQSFIDYIRDPQRPVPVGVPLARMQVYRELFFNNVMGFVSNGFPVLKSLYTDEQWQTLVQAFFGQHDCKSPVFIDIAGEFLDFLQFQYSPMDSDPPFMLELAHYEWLELRVATAQQDDRQELIGKEDITYRNLCLAATASVAQYQYPVQQIRPDYRPSEPLVNPVYFCLYQDEVGEVGFLQLTPLSAQVLGYLTEKGQGTFDELTQWLAATYPQMPTETLTQGCLALLEQLATKSIVRGV
soluble on expression in E. coli: not soluble

MYAYDIYEPIGRKDGEIFPVIFALHGFGGDELDMAGRLELLMDRFVVVSMRGDVEYGPTYGFYHMVTEGDPNAREVDYTSLRVAEFIDEVCNDYVSIDKNQIFLVGFDQGAVLTISIMQSYGGQYKAAALLSGRLPHYLEERPANLMLKDKRIFIGHGIEDAVIQIAEAEEIAQFFQKMGCNVEKHSYFVGHNVNEAEEDDLYSWFESFLP
soluble on expression in E. coli: not soluble

MGSDKIHHHHHHMQIEMTGITKAFGPVPVLKGVDFTLATGEIHALMGENGAGKSTLMKILTGVHKADQGTILVDGVEQQYKNPKLAEEAGIAFIHQELNILPDLTVTENLFLGRELKSRFGVLKQAEMKRLAERELAELNVFMDVNQLARTLSVGQQQMIEIAKALMTDAKVIIMDEPTAALTEREIRALFSVATALREQGVSIVYISHRMEEIFELCDRITVLRDGVSVSTHRIADTSFEQIVREMVGREMGERYPERQVTLGQTVLEVTGATGKRFEDVSFSVRAGEIVGFSGLMGAGRTEVMRGLFGIDRMKAGTISLNGKTIKIKSPHDAIKQGLGFLTEDRKGEGLFLDFSLRENISLPTIRSLSKSGVISDQSERQFAEGYLKSLSVRHSSMDQPAKSLSGGNQQKVVLAKWLGTKPDVLILDEPTRGVDVGAKKEIYMIMDELAATGVAIIMISSDLPEILGMSDRVYVMREGQMSGMLNQEEATQESIMTLATGGQ
soluble on expression in E. coli: not soluble

MATSLDRDKEAVLRALRPYLEGTGTRLFLFGSFARGEGRQASDLDLALLSPVPLKDLMPLLREALEEAPVVRRVDLVDLAEAEPAFRERVLREGVLWAEF
soluble on expression in E. coli: soluble

MEQLRGLYPPLAAYDSGWLDTGDGHRIYWELSGNPNGKPAVFIHGGPGGGISPHHRQLFDPERYKVLLFDQRGCGRSRPHASLDNNTTWHLVADIERLREMAGVEQWLVFGGSWGSTLALAYAQTHPERVSEMVLRGIFTLRKQRLHWYYQDGASRFFPEKWERVLSILSDDERKDVIAAYRQRLTSADPQVQLEAAKLWSVWEGETVTLLPSRESASFGEDDFALAFARIENHYFTHLGFLESDDQLLRNVPLIRHIPAVIVHGRYDMACQVQNAWDLAKAWPEAELHIVEGAGHSYDEPGILHQLMIATDRFAGK
soluble on expression in E. coli: soluble

MARFVVLVIDSFGVGAMKDVTLVRPQDAGANTCGHILSQLPHLQLPTLETLGLINALGYAPGDMQPSDSATWGVAELQHEGGDTFMGHQEILGTRPLPPLRMPFRDVIDRVEQALVSAGWQVERRGDDLQFLWVNQAVAIGDNLEADLGQVYNITANLSVISFDDAIKIGRIVREQVQVGRVITFGGLLTDSQRILDAAESKEGRFIGINAPRSGAYDNGFQVVHMGYGVDEKVQVPQKLYEAGVPTVLVGKVADIVNNPYGVSWQNLVDSQRIMDITLNEFNTHPTAFICTNIQETDLAGHAEDVARYAERLQVVDRNLARLVEAMQPDDCLVVMADHGNDPTIGHSHHTREVVPVLVYQQGMIATQLGVRTTLSDVGATVCEFFRAPPPQNGRSFLSSLRFAGDTLGKWYYLNSNGAMVTGSQTIDGKVYNFASSGEWI
soluble on expression in E. coli: not soluble

MASKYAVKLQTDFDNPKWIKRHKFMFDYLDINGNGQITLDEIVSKASDDICKNLGATPAQTQRHQDCVEAFFRGCGLEYGKETKFPEFLEGWKNLANADLAKWARNEPTLIREWGDAVFDIFDKDGSGTITLDEWKAYGRISGISPSEEDCEKTFQHCDLDNSGELDVDEMTRQHLGFWYTLDPEADGLYGNGVP
soluble on expression in E. coli: soluble

MSLNADTPLQLLGGLTAAEFLRDYWQRKPLLVRQAIPDFESPLSADELAGLSLEESVESRIVLEHGKTPWEMRRGPFQEEDYQHLPEQDWTLLVQAVDQFVPEVAQLLEQFRFLPSWRIDDVMISYAAPGGGVGPHFDNYDVFLLQGHGRRRWKVGQMCSSDSPLREHADLRILADFEQSDEWVLEPGDMLYLPPRLAHYGIAEDECMTYSIGFRAPSAAEVLTHFTDSLGQFLSDEERYTDAGLQPVGDDPHQIQRDALERLQGLIQEHMSDERLLLTWFGQFMTEPRYPELVAGEDIPEEELFGALEDGALLVRNPSARLAWSEIDIGLVLFASGQSVLLPGQLKELLKLVCSADALHLENLGQWLADDDARKLLAELVKQGSLEFADEEGGSHHHHHH
soluble on expression in E. coli: soluble

MAVTISGVRKHSPAYRHGIQAGERLLTLNGNEIMDVLDYRFYQLNTALVLELENNRGERRTVSLKKPEYEEIGLEFETYLMDRQHSCKNKCVFCFIDQLPKGLRKSLYFKDDDSRLSFLFGNYVTLTNLTEHEISRIIKMHISPMNISVHTTNPELRVKMMKNPRAGEALSIIRRFAQAGIKINCQIVLCPGYNDGEELKRTLSDLETMCPQVQAVAVVPVGITRYRQNLPEMRSFTRETAGEAIDLIESFGEKCLQKYGTRVAYPGDEFYLKAERPLPPAGFYEDFSMLENGVGLLPLLMDEFYSALEEAGETGGRKREITIATGMAPREYIRGFLDDAIKKFPHISGRVTPIVNRFFGETITVSGLVTGTDLIEQLSSVDLGDELLIPACMLRREGDLFLDDVSLQDVEAALKVPVRPVPNDGYAFLDAILGSESLEHHHHHH
soluble on expression in E. coli: not soluble

MGSDKIHHHHHHMNKTLVIGAAFVDVIVDVPKLPKTGDDIPGNLKSYVVGGSAFNVFGTLKHEKINTDLFVPVGEGNYANQIKEKMRELKIPIKLPVRGNDNGWDISFIEPGGERSFLTIQGIEQDWKTEWFKTININEYKYFYLSGYEMENENAGKVILKELQKRIPESLLLFDASPRISSISKTIIQKIMKKNVIINCNKEEANYFMPKGHSLEEKARRIYAKTESPVIVTLGSNGSYYYDGNDHIIPSEKKDKIINTIGAGDTHCGGILAGLNKDMSFKDSVILANRLSGLVVEKESGSL
soluble on expression in E. coli: not soluble

MPDSSQLVIGAGLDGLPIAQAMRLANRHGLVAGATGTGKTVTLQRLAEAFSDAGVAVFAADIKGDLCGLGAAGNPQGKVAERIAGMPWLKHQPQAYPVTLWDIHGQSGHPLRTTLSEMGPLLLGSLLELTDSQQSALYAAFKVADREGLLLLDLKDLKALLNHLKDNPQLLGDDAALMTTGSSQALLRRLATLEQQGAEALFGEPALQLEDILQPAADGRGRIHLLDASRLVHEAPKVYATFLLWLLAELFEQLPERGDADKPLLALFFDEAHLLFAGTPKALQDRLEQVVRLIRSKGVGVYFVTQSPGDLPDNVLAQLGLRIQHGLRAFTAKEQKSLRAVADGFRPNPAFDAQAVLTELGIGEALVGTLQDKGTPEMVQRVLVAPPQSRIGPLTEAERQALIASSPLLGRYDKPIDRESAYEVLLGRKELAPQDQQPSGKAAAEEPSLADRAGEFLGTAAGQALKSAMRQAANQLGRQLVRGLMGSLLGGSKRR
soluble on expression in E. coli: soluble

MLTRLAAVLEERKNAAPDSSYVASLYHKGLNKILEKVGEESVETIIAAKDAAASGDCQDLIYETADLWFHSLVMLSALGQHPQAVLDELERRFG
soluble on expression in E. coli: soluble
